From PMC6061855 (Nucleic Acids Research, 2018)

B1: Full-length E. coli RppH (RNA pyrophosphohydrolase) (enzyme, UniProt P0A776 1-176, looked up)
chain: MIDDDGYRPNVGIVICNRQGQVMWARRFGQHSWQFPQGGINPGESAEQAMYRELFEEVGLSRKDVRILASTRNWLRYKLPKRLVRWDTKPVCIGQKQKWFLLQLVSGDAEINMQTSSTPEFDGWRWVSYWYPVRQVVSFKRDVYRRVMKEFASVVMSLQENTPKPQNASAYRRKRG

Tests used:
[1] = target: His6-SUMO-DapF (E. coli DapF with uncleaved N-terminal hexahistidine and SUMO tags) (E. coli) (UniProt P0A6K1); assay: BLI
[2] = target: T1, DapFm (E. coli DapF with Y268A and R36A mutations) (E. coli, UniProt P0A6K1 1-274, Y268A | R36A); assay: BLI
T1 sequence: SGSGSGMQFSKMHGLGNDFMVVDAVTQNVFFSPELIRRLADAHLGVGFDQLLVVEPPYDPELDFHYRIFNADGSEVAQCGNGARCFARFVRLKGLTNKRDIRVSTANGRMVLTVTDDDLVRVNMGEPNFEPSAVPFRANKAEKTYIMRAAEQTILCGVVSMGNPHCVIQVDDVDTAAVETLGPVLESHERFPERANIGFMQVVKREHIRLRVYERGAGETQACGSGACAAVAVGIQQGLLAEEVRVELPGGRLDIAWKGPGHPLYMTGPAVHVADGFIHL

[3] = target: T2, His6-SUMO-DapF (E. coli DapF with uncleaved N-terminal hexahistidine and SUMO tags) (E. coli, UniProt P0A6K1 1-274); assay: cross-linking
T2 sequence: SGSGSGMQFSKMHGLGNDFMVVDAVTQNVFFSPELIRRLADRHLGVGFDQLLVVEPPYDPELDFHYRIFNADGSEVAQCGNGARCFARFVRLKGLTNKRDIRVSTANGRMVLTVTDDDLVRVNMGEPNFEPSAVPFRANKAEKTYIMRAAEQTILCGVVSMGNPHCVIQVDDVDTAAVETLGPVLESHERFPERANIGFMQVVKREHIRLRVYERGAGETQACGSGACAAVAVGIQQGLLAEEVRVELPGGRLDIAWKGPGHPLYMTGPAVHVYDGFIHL

[4] = target: T1, DapFm (E. coli DapF with Y268A and R36A …)
[5] = target: EcRppH(1–158)AA, truncated variant of E. coli RppH (E. coli) (UniProt P0A776); assay: BLI
[6] = target: B1; assay: BLI
[7] = target: T3, RppH^R134A (E. coli RppH mutant), His6-SUMO-tagged (E. coli, UniProt P0A776 1-176, R134A); assay: BLI
T3 sequence (looked up): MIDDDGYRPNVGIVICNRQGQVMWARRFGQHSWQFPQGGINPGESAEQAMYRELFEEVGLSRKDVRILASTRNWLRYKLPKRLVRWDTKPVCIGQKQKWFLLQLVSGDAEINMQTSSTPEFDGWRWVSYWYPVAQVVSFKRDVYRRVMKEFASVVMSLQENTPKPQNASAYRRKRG

[8] = target: T4, His6-SUMO-tagged E. coli RppH (E. coli, UniProt P0A776 1-176); assay: BLI
T4 sequence (looked up): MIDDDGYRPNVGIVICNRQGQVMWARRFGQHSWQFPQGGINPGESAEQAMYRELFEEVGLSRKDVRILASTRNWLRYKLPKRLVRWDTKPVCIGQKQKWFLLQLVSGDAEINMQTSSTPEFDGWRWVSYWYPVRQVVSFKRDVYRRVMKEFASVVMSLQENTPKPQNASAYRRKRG

RppHt;DapFm = target: T5, RppHt;DapFm (Escherichia coli;Escherichia coli, UniProt P0A776;P0A6K1 1-158;1-274, |R36A;Y268A); assay: X-ray crystallography
T5 sequence 1: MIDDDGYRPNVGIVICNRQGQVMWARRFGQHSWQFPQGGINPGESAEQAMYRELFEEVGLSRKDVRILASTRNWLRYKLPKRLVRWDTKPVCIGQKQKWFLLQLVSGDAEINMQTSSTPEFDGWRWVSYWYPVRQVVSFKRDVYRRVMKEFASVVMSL
T5 sequence 2: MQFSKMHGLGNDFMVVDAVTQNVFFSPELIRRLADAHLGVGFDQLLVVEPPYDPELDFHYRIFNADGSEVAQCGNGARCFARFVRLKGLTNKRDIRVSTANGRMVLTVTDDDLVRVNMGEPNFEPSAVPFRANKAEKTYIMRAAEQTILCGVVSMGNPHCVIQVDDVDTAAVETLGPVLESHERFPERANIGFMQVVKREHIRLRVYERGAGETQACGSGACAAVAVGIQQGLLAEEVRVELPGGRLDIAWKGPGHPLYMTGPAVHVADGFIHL

RppH^W130A,R145A (E. coli RppH double mutant) (from UniProt P0A776 1-176) (enzyme)
Kd [1]: 1900 nM

B1
Kd [2]: 7.5 nM | stoichiometry N [3]: 1 RppH per DapF (printed as 2:2) | stoichiometry N [4]: 1 RppH per DapFm (printed as 1:1)

B2: DapFm (E. coli DapF with Y268A and R36A mutations) (enzyme)
chain: SGSGSGMQFSKMHGLGNDFMVVDAVTQNVFFSPELIRRLADAHLGVGFDQLLVVEPPYDPELDFHYRIFNADGSEVAQCGNGARCFARFVRLKGLTNKRDIRVSTANGRMVLTVTDDDLVRVNMGEPNFEPSAVPFRANKAEKTYIMRAAEQTILCGVVSMGNPHCVIQVDDVDTAAVETLGPVLESHERFPERANIGFMQVVKREHIRLRVYERGAGETQACGSGACAAVAVGIQQGLLAEEVRVELPGGRLDIAWKGPGHPLYMTGPAVHVADGFIHL
Kd [5]: 6 nM

B3: DapF V19S-F58S (E. coli DapF double mutant) (enzyme)
chain: SGSGSGMQFSKMHGLGNDFMVVDASTQNVFFSPELIRRLADRHLGVGFDQLLVVEPPYDPELDSHYRIFNADGSEVAQCGNGARCFARFVRLKGLTNKRDIRVSTANGRMVLTVTDDDLVRVNMGEPNFEPSAVPFRANKAEKTYIMRAAEQTILCGVVSMGNPHCVIQVDDVDTAAVETLGPVLESHERFPERANIGFMQVVKREHIRLRVYERGAGETQACGSGACAAVAVGIQQGLLAEEVRVELPGGRLDIAWKGPGHPLYMTGPAVHVYDGFIHL
fold reduction of the binding affinity against wild-type DapF [6]: 59 fold

B4: E. coli DapF (diaminopimelate epimerase) bearing six additional residues (SGSGSG) at the amino terminus (enzyme)
chain: SGSGSGMQFSKMHGLGNDFMVVDAVTQNVFFSPELIRRLADRHLGVGFDQLLVVEPPYDPELDFHYRIFNADGSEVAQCGNGARCFARFVRLKGLTNKRDIRVSTANGRMVLTVTDDDLVRVNMGEPNFEPSAVPFRANKAEKTYIMRAAEQTILCGVVSMGNPHCVIQVDDVDTAAVETLGPVLESHERFPERANIGFMQVVKREHIRLRVYERGAGETQACGSGACAAVAVGIQQGLLAEEVRVELPGGRLDIAWKGPGHPLYMTGPAVHVYDGFIHL
fold reduction of the binding affinity against wild-type RppH [7]: 2 fold

B5: DapF^V19S,F58S,L89S (E. coli DapF triple mutant) (enzyme)
chain: SGSGSGMQFSKMHGLGNDFMVVDASTQNVFFSPELIRRLADRHLGVGFDQLLVVEPPYDPELDSHYRIFNADGSEVAQCGNGARCFARFVRLKGSTNKRDIRVSTANGRMVLTVTDDDLVRVNMGEPNFEPSAVPFRANKAEKTYIMRAAEQTILCGVVSMGNPHCVIQVDDVDTAAVETLGPVLESHERFPERANIGFMQVVKREHIRLRVYERGAGETQACGSGACAAVAVGIQQGLLAEEVRVELPGGRLDIAWKGPGHPLYMTGPAVHVYDGFIHL
fold decrease of binding against wild-type DapF [8]: ~5800 fold

B6: DapF V19S-L89S (E. coli DapF double mutant) (enzyme)
chain: SGSGSGMQFSKMHGLGNDFMVVDASTQNVFFSPELIRRLADRHLGVGFDQLLVVEPPYDPELDFHYRIFNADGSEVAQCGNGARCFARFVRLKGSTNKRDIRVSTANGRMVLTVTDDDLVRVNMGEPNFEPSAVPFRANKAEKTYIMRAAEQTILCGVVSMGNPHCVIQVDDVDTAAVETLGPVLESHERFPERANIGFMQVVKREHIRLRVYERGAGETQACGSGACAAVAVGIQQGLLAEEVRVELPGGRLDIAWKGPGHPLYMTGPAVHVYDGFIHL
fold reduction of the binding affinity against wild-type DapF [6]: 77 fold

B7: DapF F58S-L89S (E. coli DapF double mutant) (enzyme)
chain: SGSGSGMQFSKMHGLGNDFMVVDAVTQNVFFSPELIRRLADRHLGVGFDQLLVVEPPYDPELDSHYRIFNADGSEVAQCGNGARCFARFVRLKGSTNKRDIRVSTANGRMVLTVTDDDLVRVNMGEPNFEPSAVPFRANKAEKTYIMRAAEQTILCGVVSMGNPHCVIQVDDVDTAAVETLGPVLESHERFPERANIGFMQVVKREHIRLRVYERGAGETQACGSGACAAVAVGIQQGLLAEEVRVELPGGRLDIAWKGPGHPLYMTGPAVHVYDGFIHL
fold reduction of the binding affinity against wild-type DapF [6]: 290 fold

B8: ppcpAGU (ssRNA)
RNA: AGU
modifications: 5' triphosphate analog ppcpA (non-natural bridging group, from ppcpA starter nucleotide)
binding result (RppHt;DapFm): binds
